Measured values published in the RNAGym collection of RNA variant scans (doi:10.1073/pnas.2313332121).

B1: TPR t1 (parent)
chain: GACCAAUCUGCCCUCAGAGCUCGAGAACAUCUUCGGAUGCAGAGGAGGCAGGCUUCGGUGGCGCGAUAGCGCCAACGUCCUCAACCUCCAAUGCAUCCCACCACAUGAUGAUGCCUGAAGAGCCUUGGUUUUUUG

Variants of: B1
Assay: polymerase ribozyme fitness, log enrichment relative to wild type (log ratio); higher = more active; in vitro selection for triplet polymerase activity
Method in brief: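 Mutant libraries of each subunit of a heterodimeric triplet polymerase ribozyme were built by PCR and transcribed. Each library went through one round of in vitro selection in triplicate: annealing with biotinylated primer, partner subunit and triplets, frozen incubation at −7 °C, gel excision of extended constructs, streptavidin-bead capture and RT-PCR. Input and output libraries were Illumina-sequenced; only genotypes with ≥10 input reads and ≥1 read per output were kept. Fitness is log2(genotype enrichment/wild-type enrichment), using inverse-variance-weighted replicate averages.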

Variant | polymerase ribozyme fitness (log ratio)
A37U C85U | -1.29
A37U G45U C56U C70G C102G G113A U125A | -7.38
A37U C40G G63A A66G C82A U109G | -6.22
A37G A43U G44U C72U U87C C104U U129G | -2.31
A37C G110C C124A U133A | -3.68
A37U C72A U106A G135U | -0.59
A37G G69U C73U U87C C104A U131G | -4.34
A37U A50C C70A C124G | -1.17
A37G U55G C88U A105C G120C U125C | -1.81
A37U A43G A50C G52U G110A | -5.79
A37G C53A G63U U125A | -3.34
A37G C86A | -1.81
A37C U96G | 0.787
A37U C123U U126A | 0.344
A37U G47A U116G | -3.09
A37U G47U G60A G110A | -3.74
A37C G45U G51U C73U C124G | -3.87
A37U G69A A83U U96A C124U U131A | -1.63
A37G U109G | -5.43
A37C G58A C72G U78C G113C | -3.84
A37G U38G G61U C104U C124G | -4.81

Variant | polymerase ribozyme fitness (log ratio)
A37U G48U G57U G60U U129C | -1.31
A37G G52A G61U | -3.07
A37G G71U C114A A119C | -5.35
A37U C56U C72U | -0.343
A37G C80U | -2.46
A37C G128C | -3.32
A37G A111C C124G | 0.322
A37C G45U G51U C73U | -4.53
A37U C101G G128C | -3.4
A37U C62G | -3.59
A37U A43U G93C U116A | -6.51
A37C G57U A68G | -3.57
A37U A50C C124G | 1.16
A37C G60U U96A G110C U134A | -2.04
A37U C70A U109A | -6.47
A37U A66U | -1.5
A37U G51A A100C U112A | -5.37
A37U A41G | -0.165
A37U G39U G69A | -4.43
A37G G61A C101A G127A | -1.91
A37U C62U U96G | -0.183

Variant | polymerase ribozyme fitness (log ratio)
A37U G39C G57C G61A U106C G113C | -4.04
A37G G69U C89G | -2.64
A37U G45C A46C U78A | -2.59
A37U A41U C79G | -4.3
A37C G60U U81A A121C | 0.858
A37G G52C A100C C104U | -2.8
A37C U116G | -2.29
A37U C40A C94U | -4.04
A37U G47C C56G C104A | -3.66
A37G C53A G57U | 0.602
A37U G77A A111C | 0.0508
A37U G61U C114A U130A | -1.52
A37U C62A U92C | -2.86
A37U A121C U126G G128U | 0.977
A37G G77A U130G | -1.16
A37G G63U U81A | -2.09
A37U G48C A121C | 0.912
A37G C72U | -0.261
A37G A68G A111C C124G | -3.95
A37U C64U | -1.67
A37G A43U G47U C101G | -4.64

Variant | polymerase ribozyme fitness (log ratio)
A37G G120A | 0.248
A37G C88A A91U | -4.17
A37G C64U U78C C86G | -4.56
A37G G63U C101G C104G C114U G128A | -4.99
A37U C49A C86U G117C | -4.27
A37U G60U | -1.39
A37U G52C G71A C115U U132C | -3.24
A37U A66C C76U | -2.83
A37U A74G A90C | -2.26
A37U C53G G63C U116A | -2.98
A37U G69U A95C C101G G127A | -3.13
A37G U55G C72A U129A | -1.52
A37U C73U G120C | 1.31
A37U C82A G93U | -1.72
A37U A43G C86G | -2.33
A37U A91G A105U | -3.28
A37U G57C G63A | -1.29
A37U C101A C115U G127C | -4.26
A37U A90G C97A | -5.5
A37U C49G | -0.828
A37C G48A A68G U96A | -3.13
